Measurements taken from article PMC4937518.

Molecular target: GAPDH (human (endogenous in U2OS)) (UniProt P04406)
Assay: cross-linking; titration of formaldehyde on intact adherent U2OS cells, quenched with Tris, extracted in SDS denaturing buffer, immunoblot of total cell lysates; 6% formaldehyde optimal

Chain of GAPDH, P04406 1-335 (enzyme; other documents disagree on this pair) (P04406 whole entry): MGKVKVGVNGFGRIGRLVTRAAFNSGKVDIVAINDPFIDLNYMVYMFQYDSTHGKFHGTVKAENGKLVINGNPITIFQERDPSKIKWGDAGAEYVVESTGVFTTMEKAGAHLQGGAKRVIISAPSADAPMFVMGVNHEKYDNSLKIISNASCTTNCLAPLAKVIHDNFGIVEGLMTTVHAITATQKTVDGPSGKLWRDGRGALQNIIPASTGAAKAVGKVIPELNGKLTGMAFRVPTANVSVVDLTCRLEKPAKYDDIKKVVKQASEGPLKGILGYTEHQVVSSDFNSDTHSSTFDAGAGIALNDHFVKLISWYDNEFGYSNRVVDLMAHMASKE

## GAPDH, P04406 1-335 (enzyme; other documents disagree on this pair)
  stoichiometry N: 4
